# From patent US20180086826A1
# Legend:
# [1] = target: meditope-enabled Trastuzumab Fab (original, Ile83); test: SPR, 37 °C, immobilized memAb
# [2] = target: I83E trastuzumab memAb Fab; test: SPR, 37 °C; against the original meditope on the original trastuzumab memAb Fab
# [3] = target: meditope-enabled Trastuzumab Fab (original, Ile83); test: as above
# [4] = target: I83E trastuzumab memAb Fab; test: SPR, 37 °C
# [5] = target: HER2 (UniProt P04626); test: SPR, immobilized HER2, 25 °C
# [6] = target: meditope-enabled Trastuzumab Fab (original, Ile83); test: SPR, 37 °C
Kd [1],τ1/2 [1],fold increase in affinity [2],fold increase in affinity [3],Kd [4],τ1/2 [4],Kd [5],koff [4],τ1/2 [6],Substance
41 nM,60 s,1160 fold,25 fold,0.86 nM,2400 s,–,–,–,5-diphenyl meditope (peptide)
–,–,–,–,–,–,0.044 nM,–,–,I83E trastuzumab memAb Fab
1000 nM,–,25 fold,–,38 nM,280 s,–,0.0025 s⁻¹,16 s,original meditope (peptide)
